Data taken from patent US20060002928A1.

Columns and labels:
[1] = biological target: murine B7-DC (murine) (UniProt Q9WUL5); assay: flow cytometry competition on murine bone marrow derived DC; preincubation with PD-1.Ig, staining with sHIgM12 as competitor read out
[2] = biological target: murine B7-DC (murine) (UniProt Q9WUL5); assay: cell-based or functional assay
[3] = biological target: murine B7-DC (murine) (UniProt Q9WUL5); assay: flow cytometry on 293T cells transfected with murine B7-DC
[4] = biological target: murine B7-DC (murine) (UniProt Q9WUL5); assay: flow cytometry competition on murine DC; preincubation with sHIgM12, staining with PD-1.Ig as competitor read out

Sequence of murine B7-DC (murine) (Q9WUL5 20-247): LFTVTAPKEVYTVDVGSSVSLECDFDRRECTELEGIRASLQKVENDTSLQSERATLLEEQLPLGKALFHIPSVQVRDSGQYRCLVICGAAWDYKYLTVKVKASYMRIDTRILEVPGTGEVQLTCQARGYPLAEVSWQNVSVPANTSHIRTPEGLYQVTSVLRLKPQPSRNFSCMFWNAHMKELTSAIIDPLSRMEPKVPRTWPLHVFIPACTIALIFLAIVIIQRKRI

sHIgM12 staining left, percent of the level without PD-1 [1] | GFP+, CD11c+ DC recovered from draining lymph nodes after adoptive transfer [2] | IL-12 p70 release by DC (ELISA of culture supernatants) [2] | ability of lymph node DC to induce an antigen-specific T cell response [2] | percentage of cellular metabolism (Alamar Blue) maintained 24 hours after cytokine withdrawal from DC [2] | percent of transfected cells stained [3] | PD-1 binding left, percent of the level without sHIgM12 [4] | Substance
50% | – | – | – | – | – | – | PD-1.Ig fusion protein (Fc fusion)
– | 5 fold | 3 fold | 10 fold | 80% | 97% | 20% | sHIgM12 (human monoclonal IgM antibody, pentameric, purified from patient serum)
